Results taken from US20240216513A1, “FATTY ACID-BIFUNCTIONAL DEGRADER CONJUGATES AND THEIR METHODS OF USE” (Novartis AG, priority 2021, published 2024).

How the values were obtained:
[1] = BTK FAC plasma stability assay, dog plasma; type: in vitro ADME
[2] = BTK FAC plasma stability assay, rat plasma; type: in vitro ADME; details: for Plasma stability (h) rat: incubation to 24 h
Summary of the method: (§1)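 Compound from a 500 µM acetonitrile:water working solution was spiked into K3-EDTA plasma or Dulbecco's PBS and incubated with shaking at 38 °C. Samples taken at 0, 2, 6 and 24 h were precipitated with cold acetonitrile containing glyburide internal standard. Semi-quantitative LC-MS/MS used analyte:internal standard peak area ratios.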

[3] = In vivo pharmacokinetic study in Beagle dogs (i.v. or s.c.), FAC and payload in blood; set-up: species or system dog; details: analyte payload after FAC i.v. dose 1 umol/kg
Protocol: (§2) Pharmacokinetic studies were conducted in male C57/B16 mice; male Sprague-Dawley rats; male Beagle dogs and male Cynomolgus monkeys. 3 animals per group were used for each study performed. All studies were performed in accordance with local animal welfare regulations.
(§3) Between 1 and 10 µM/kg FAC was administered either intravenously or subcutaneously as a solution in 10 mM PBS with NaOH (dose volume 0.4 mL/kg in dog and monkey s.c. and 0.2 mL/kg i.v. in monkey). Serial 100 µL blood samples were collected via venipuncture of the cephalic vein at defined timepoints to 336 hours (into EDTA coated tubes).
(§4) Each blood sample was precipitated with acetonitrile containing internal standard; samples were mixed and centrifuged (20 minutes 4000 RPM at 4° C.). Supernatant was transferred to a microwell plate and evaporated under nitrogen at 60° C. Residue was resuspended in acetonitrile/water (7:3 v/v); plate sealed and transferred to an ultrasonic bath for 3 minutes, prior to analysis. Quantification was performed by LC-MS/MS (SciexAP16500 Q-trap, Shimadzu Nexera X2) using a Phenomenex Polar RP analytical column (2.5 μm particle size; 50×2 mm). The mobile phase consisted of solvent A (0.1% formic acid in water) and solvent B (0.1% formic acid in acetonitrile). The fatty acid conjugate and API were detected using multiple reaction monitoring.
(§5) Data analysis and calculation of non-compartmental pharmacokinetic parameters was
(§6) performed using an in-house analysis. Following intravenous administration whole blood clearance was calculated by the dose administered divided by AUC0-inf. Volume of distribution at steady state was calculated as MRT*CL, where MRT is the mean residence time, calculated by AUMC0-inf/AUC0-inf. The half-life (t1/2) of the terminal elimination phase was calculated by 0.693/λ. For both intravenous and subcutaneous administration, the systemic exposures were determined by calculating the area under the blood concentration time curve (AUC) from time zero to the last observed quantifiable concentration (AUClast) by using the linear trapezoidal method and normalised to dose. Extrapolated AUC (AUC0-inf) is calculated by addition of AUClast and AUCtlast-inf; where AUCtlast-inf is calculated based on Clast/λ. The slope of the terminal elimination phase was estimated by linear regression of the terminal data points (minimum 3 points) from a natural log concentration versus time plot of the data. Bioavailability was calculated as the dose normalized ratio of […] AUCinf to intravenous AUCinf (100*[SC AUCinf/SC dose]/[IV AUCinf/IV dose]). Following subcutaneous administration Cmax is calculated as the average maximum observed peak concentration and Tmax is the time associated with the determined Cmax.

[4] = BTK FAC plasma stability assay, mouse plasma; type: in vitro ADME; details: for Plasma stability (h) mouse: incubation to 24 h
Summary of the method: as §1

[5] = In vivo pharmacokinetic study in Cynomolgus monkeys (i.v. or s.c.), FAC and payload in blood; set-up: species or system cynomolgus monkey; details: analyte FAC, FAC i.v. dose 1 umol/kg
Protocol: as §2, §3, §4, §5, §6

[6] = BTK FAC plasma stability assay, PBS buffer arm; type: physicochemical; details: for Plasma stability (h) PBS: incubation to 24 h
Summary of the method: as §1

[7] = BTK FAC plasma stability assay, cyno plasma; type: in vitro ADME, cynomolgus monkey
[8] = biological target: T1, BTK C481S (Homo sapiens, UniProt Q06187, C481S); assay: PD screen in TMD8 BTK C481S mutant tumor-bearing mice, BTK levels and compound concentrations in blood and tumor; type: in vivo, mouse
T1 construct: endogenous in cells; host or cells: TMD8 BTK C481S mutant tumour xenografts in mice
T1 sequence (Q06187 whole entry C481S): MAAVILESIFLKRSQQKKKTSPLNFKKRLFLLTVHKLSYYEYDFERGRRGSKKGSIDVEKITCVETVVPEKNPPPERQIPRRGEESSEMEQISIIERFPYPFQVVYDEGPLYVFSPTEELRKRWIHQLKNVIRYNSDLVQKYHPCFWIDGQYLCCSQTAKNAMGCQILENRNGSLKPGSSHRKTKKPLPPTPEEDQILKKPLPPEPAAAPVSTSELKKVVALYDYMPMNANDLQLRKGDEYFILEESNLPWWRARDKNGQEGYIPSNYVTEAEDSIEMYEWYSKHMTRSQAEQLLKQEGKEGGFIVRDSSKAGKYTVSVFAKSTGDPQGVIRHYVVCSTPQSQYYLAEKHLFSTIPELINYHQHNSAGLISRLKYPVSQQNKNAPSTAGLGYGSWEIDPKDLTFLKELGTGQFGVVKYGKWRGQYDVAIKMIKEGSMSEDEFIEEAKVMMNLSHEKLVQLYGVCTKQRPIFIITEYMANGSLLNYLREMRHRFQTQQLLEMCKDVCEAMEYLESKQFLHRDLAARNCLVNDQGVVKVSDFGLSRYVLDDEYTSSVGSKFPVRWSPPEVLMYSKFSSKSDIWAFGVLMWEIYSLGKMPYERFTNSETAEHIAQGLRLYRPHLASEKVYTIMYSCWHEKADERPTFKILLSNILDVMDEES
Summary of the method: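 Single compound injection in mice bearing TMD8 BTK C481S tumors, groups of 2, with blood and tumor sampled at day 0, 4, 7 and sometimes 10. Compound levels measured by UPLC/MS-MS and BTK levels by Meso Scale Discovery.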

[9] = In vivo pharmacokinetic study in mice (i.v. or s.c.), FAC and payload in blood; set-up: species or system mouse; details: male, C57/B16, mouse, in vivo, iv; analyte FAC; FAC i.v. dose 10 umol/kg; read-out: FAC AUC-uM.h mouse
Protocol: as §2
(§7) […] Serial 30 µL blood samples were collected via venipuncture of the tail vein in mouse, and via the cannulated jugular vein in rats at defined timepoints to 216 hours (into EDTA coated tubes).
as §4, §5, §6
(§8) For PK experiments, non-tumor bearing mice or rats were treated once (10 mL/kg) with a compound either i.v. or s.c. Serial blood samplings from the tail vein (5-20 μl) were collected during the course of the experiment. For PK/PD experiments in tumor-bearing mice, compound was administered once (10 mL/kg) either i.v. or s.c. Animals were randomized into groups of n=3 and tissue samples were collected at several time points. At the times indicated, animals were anaesthetized by exposure to 2-3% v/v isoflurane in medical oxygen. They were sacrificed without recovering from anesthetic after blood sampling into commercially prepared EDTA coated tubes (Milian, cat #TOM-14C) in order to extract plasma. The tissues were excised, weighted and rapidly frozen in liquid nitrogen. Later, tumors were cryogenic dry pulverized with the CryoPrep™ system (model CP-02, Covaris). For efficacy experiments in ectopic tumor-bearing mice, animals were randomized into groups of n=6 for a mean tumor size of 100 mm^3 and compound was administered either i.v. q3w or s.c. q2w. When implanted in brain, animals were randomized into groups of n=4 for a mean bioluminescence of 1.0-2.0E+06 [p/s]/[ρW/cm^2] and compound was administered i.v. qw. Tumor response were reported with the measures of tumor volumes or bioluminescence from the treatment start. […]

[10] = In vivo pharmacokinetic study in rats (i.v. or s.c.), FAC and payload in blood; set-up: species or system rat
Protocol: as §2, §7, §4, §5, §6, §8

| SMILES | Plasma stability (h) dog [1] [h] | % Release of degrader after 24 h dog [1] [%] | % Release of degrader after 24 h rat [2] [%] | Plasma stability (h) rat [2] [h] | Payload C0-uM dog [3] [µM] | % Release of degrader after 24 h mouse [4] [%] | Plasma stability (h) mouse [4] [h] | C0 ([5]; read-out: FAC C0-uM cyno) [µM] | AUC ([5]; male, cynomolgus monkey, whole blood, iv, read-out: FAC AUC-uM.h cyno) [µM·h] | % Release of degrader after 24 h PBS [6] [%] | Plasma stability (h) PBS [6] [h] | Plasma stability (h) cyno [7] [h] | % Release of degrader after 24 h cyno [7] [%] | Duration of BTK degradation in mouse ≥90% ([8]; i.v., 50 umol/kg) [days] | AUC [9] [µM·h] | C0 ([10]; analyte FAC, FAC i.v. dose 10 umol/kg, read-out: FAC C0-uM rat) [µM] | Payload C0-uM Rat ([10]; analyte payload after FAC i.v. dose 10 umol/kg) [µM] | AUC ([10]; male, Sprague-Dawley, rat, in vivo, iv, analyte FAC, FAC i.v. dose 10 umol/kg, read-out: FAC AUC-uM.h rat) [µM·h] | Duration of BTK degradation in mouse ≥90% ([8]; i.v., 25 umol/kg) [days] | Duration of BTK degradation in mouse ≥90% ([8]; s.c., 25 umol/kg) [days] |
| --- | --- | --- | --- | --- | --- | --- | --- | --- | --- | --- | --- | --- | --- | --- | --- | --- | --- | --- | --- | --- |
| CCCCCCCCCCCN(C(=O)CCCCCCCCCC(=O)O)[C@@H](CCC(=O)NCCOCCOCCOCCOCCOCCOCCOCCOCCOCCOCCOCCOCCC(=O)NCC(=O)OC(C)(C)c1ccc(C(=O)Nc2cc(F)cc(-c3ncnc4[nH]c(-c5ccc(CCN6CCC7(CC6)CCN(C(=O)c6ccc(OC)c(N8CCC(=O)NC8=O)c6)CC7)cc5)cc34)c2C)c(F)c1)C(=O)O [Example A2, (S)-50-Carboxy-2-(4-((3-(6-(4-(2-(9-(3-(2,4-dioxotetrahydropyrimidin-1(2H)-yl)-4-methoxybenzoyl)-3,9-diazaspiro[5.5]undecan-3-yl)ethyl)phenyl)-7H-pyrrolo[2,3-d]pyrimidin-4-yl)-5-fluoro-2-methylphenyl)carbamoyl)-3-fluorophenyl)-2-methyl-4,7,47,52-tetraoxo-51-undecyl-3,10,13,16,19,22,25,28,31,34,37,40,43-tridecaoxa-6,46,51-triazadohexacontan-62-oic acid] | >48 | 7.3 | 8.9 | 18.1 | 0.2 | 3.4 | 12.3 | 56.6 | 590 | 0.8 | >48 |  |  |  |  |  |  |  |  |  |
| CCCCCCCCCCCN(C(=O)CCCCCCCCCC(=O)O)C(CCC(=O)NCCOCCOCCOCCOCCOCCOCCOCCOCCOCCOCCOCCOCCC(=O)NC(C)(C)CC(=O)OC(C)(C)c1ccc(C(=O)Nc2cc(F)cc(-c3ncnc4[nH]c(-c5ccc(CCN6CCC7(CC6)CCN(C(=O)c6ccc(OC)c(N8CCC(=O)NC8=O)c6)CC7)cc5)cc34)c2C)c(F)c1)C(=O)O (stereo not shown) [Example A18, 51-Carboxy-2-(4-((3-(6-(4-(2-(9-(3-(2,4-dioxotetrahydropyrimidin-1(2H)-yl)-4-methoxybenzoyl)-3,9-diazaspiro[5.5]undecan-3-yl)ethyl)phenyl)-7H-pyrrolo[2,3-d]pyrimidin-4-yl)-5-fluoro-2-methylphenyl)carbamoyl)-3-fluorophenyl)-2,6,6-trimethyl-4,8,48,53-tetraoxo-52-undecyl-3,11,14,17,20,23,26,29,32,35,38,41,44-tridecaoxa-7,47,52-triazatrihexacontan-63-oic acid] | >48 | 0.3 | 0.2 | >48 | 0.3 | 0.8 | >48 |  |  | 0.6 | >48 | >48 | 0.4 | <4 |  |  |  |  |  |  |
| CCCCCCCCCCCN(C(=O)CCCCCCCCCC(=O)O)C(CCC(=O)NCCOCCOCCOCCOCCOCCOCCOCCOCCOCCOCCOCCOCCC(=O)NCc1ccc(CC(=O)OC(C)(C)c2ccc(C(=O)Nc3cc(F)cc(-c4ncnc5[nH]c(-c6ccc(CCN7CCC8(CC7)CCN(C(=O)c7ccc(OC)c(N9CCC(=O)NC9=O)c7)CC8)cc6)cc45)c3C)c(F)c2)cc1)C(=O)O (stereo not shown) [Example A23, 46-Carboxy-1-(4-(2-((2-(4-((3-(6-(4-(2-(9-(3-(2,4-dioxotetrahydropyrimidin-1(2H)-yl)-4-methoxybenzoyl)-3,9-diazaspiro[5.5]undecan-3-yl)ethyl)phenyl)-7H-pyrrolo[2,3-d]pyrimidin-4-yl)-5-fluoro-2-methylphenyl)carbamoyl)-3-fluorophenyl)propan-2-yl)oxy)-2-oxoethyl)phenyl)-3,43,48-trioxo-47-undecyl-6,9,12,15,18,21,24,27,30,33,36,39-dodecaoxa-2,42,47-triazaoctapentacontan-58-oic acid] | >48 | 0.8 | 1.1 | >48 | 0.59 | 5.8 | >48 |  |  | 0.2 | >48 | >48 | 0.6 |  | 856 |  |  |  |  |  |
| COc1ccc(C(=O)N2CCC3(CCN(CCc4ccc(-c5cc6c(-c7cc(F)cc(NC(=O)c8ccc(C(C)(C)OC(=O)CNC(=O)CCOCCOCCOCCOCCOCCOCCOCCOCCOCCOCCOCCOCCNC(=O)C(CCCCCCCCCCCCCCP(=O)(O)O)(CCCCCCCCCCCCCCP(=O)(O)O)C(=O)O)cc8F)c7C)ncnc6[nH]5)cc4)CC3)CC2)cc1N1CCC(=O)NC1=O [Example A28, 2-(4-((3-(6-(4-(2-(9-(3-(2,4-dioxotetrahydropyrimidin-1(2H)-yl)-4-methoxybenzoyl)-3,9-diazaspiro[5.5]undecan-3-yl)ethyl)phenyl)-7H-pyrrolo[2,3-d]pyrimidin-4-yl)-5-fluoro-2-methylphenyl)carbamoyl)-3-fluorophenyl)-2-methyl-4,7,47-trioxo-48,48-bis(14-phosphonotetradecyl)-3,10,13,16,19,22,25,28,31,34,37,40,43-tridecaoxa-6,46-diazanonatetracontan-49-oic acid] |  |  |  |  |  |  |  |  |  |  |  |  |  |  |  | 57 | 0.21 | 704 | 10 | 10 |
